This passage reports binding result and EC50 results from patent publication US20240076386A1 (Pfizer, published 2024).

Changes are numbered by the printed parent chain.

Broadly, the EC50 is the concentration giving half of the maximal effect.

The target of experiment [1] is T1, human P-selectin expressed on CHO cells (human, UniProt P16109 42-830).
T1 construct: whole, on cells; also called CHO-human P-selectin cells; CHO-P-selectin cells
T1 sequence (looked up): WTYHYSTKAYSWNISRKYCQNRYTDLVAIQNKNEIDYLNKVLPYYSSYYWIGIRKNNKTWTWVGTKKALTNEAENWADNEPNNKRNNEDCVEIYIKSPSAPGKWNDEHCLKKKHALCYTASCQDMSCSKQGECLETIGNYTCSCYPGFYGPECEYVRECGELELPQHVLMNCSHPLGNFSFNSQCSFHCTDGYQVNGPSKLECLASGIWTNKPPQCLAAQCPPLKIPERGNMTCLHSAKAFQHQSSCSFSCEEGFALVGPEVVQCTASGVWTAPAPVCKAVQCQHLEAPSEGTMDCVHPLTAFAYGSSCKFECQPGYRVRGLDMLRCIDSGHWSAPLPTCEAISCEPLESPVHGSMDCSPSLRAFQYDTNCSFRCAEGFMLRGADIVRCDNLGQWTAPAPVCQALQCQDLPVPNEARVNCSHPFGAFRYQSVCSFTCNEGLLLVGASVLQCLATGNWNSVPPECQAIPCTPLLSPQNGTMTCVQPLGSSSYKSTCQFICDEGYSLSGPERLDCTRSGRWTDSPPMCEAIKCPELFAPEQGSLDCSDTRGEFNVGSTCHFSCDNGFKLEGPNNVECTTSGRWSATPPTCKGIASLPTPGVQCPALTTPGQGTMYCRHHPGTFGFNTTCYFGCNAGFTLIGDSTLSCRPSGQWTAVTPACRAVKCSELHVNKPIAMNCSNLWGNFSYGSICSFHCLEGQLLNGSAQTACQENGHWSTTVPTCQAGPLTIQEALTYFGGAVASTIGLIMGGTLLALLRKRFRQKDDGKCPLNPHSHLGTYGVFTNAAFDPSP
The experiment in a line: flow cytometry, CHO cells. Here is the method: Cells were maintained in growth medium at 37° C., 5% CO₂ and 95% air in a humidified incubator. Methotrexate or Zeocin were removed from the medium prior to culture for experiments. CHO-E selectin cells or P-selectin cells were detached from T-150 flasks using citric saline (135 mM KCl, 15 mM sodium citrate) and immediately re-calcified with the addition of CaCl₂) to the detached cells to a final concentration of 1 mM. Growth media was immediately added to the detached cells, then centrifuged at 300×g for 5 minutes at room temperature to pellet the cells. Cells were plated into 96-well V-bottom plates in cold CHO buffer consisting of phosphate buffered saline (PBS), pH 7.4 containing bovine serum albumin (BSA; Sigma-Aldrich) at final concentration of 1%, calcium chloride at final concentration of 1 mM, and sodium azide at a final concentration of 0.1%, for 5 minutes on wet ice. After incubation, the cells were centrifuged at 300×g for 2 minutes at 4° C. to remove the buffer.
After incubation, antibodies were removed and the cells were washed three times by centrifugation at 300×g for 1 minute at 4° C. and resuspended in cold CHO buffer. The washed cells were incubated for 30 minutes on wet ice with 100 μL of a 1:1000 dilution of APC-conjugated AffiniPure F(ab′)₂ Fragment Goat Anti-human IgG, Fcγ (Jackson Imnnunoresearch). The cells were washed three or four times prior to resuspension in CHO buffer for flow cytometric analysis. A Becton Dickinson LSRFortessa instrument using 640 nanometer laser line was used to acquire cell fluorescence data. Geometric mean fluorescence of cells was analyzed by FlowJo software package (FlowJo, LLC) and plotted against antibody concentration. The estimated EC₅₀ values were calculated using nonlinear regression analysis in the Prism suite (GraphPad, version 8) (Table 8).
(Flow cytometry measures light scatter and fluorescence of single cells or particles in a stream.)

Experiment [2] deals with T2, cynomolgus monkey E-selectin extracellular domain with 10 His purification tail (cynomolgus monkey, UniProt P16581 22-554 (human entry)).
T2 construct: also called cynomolgus E-selectin; truncated cynomolgus monkey E-selectin
T2 chain: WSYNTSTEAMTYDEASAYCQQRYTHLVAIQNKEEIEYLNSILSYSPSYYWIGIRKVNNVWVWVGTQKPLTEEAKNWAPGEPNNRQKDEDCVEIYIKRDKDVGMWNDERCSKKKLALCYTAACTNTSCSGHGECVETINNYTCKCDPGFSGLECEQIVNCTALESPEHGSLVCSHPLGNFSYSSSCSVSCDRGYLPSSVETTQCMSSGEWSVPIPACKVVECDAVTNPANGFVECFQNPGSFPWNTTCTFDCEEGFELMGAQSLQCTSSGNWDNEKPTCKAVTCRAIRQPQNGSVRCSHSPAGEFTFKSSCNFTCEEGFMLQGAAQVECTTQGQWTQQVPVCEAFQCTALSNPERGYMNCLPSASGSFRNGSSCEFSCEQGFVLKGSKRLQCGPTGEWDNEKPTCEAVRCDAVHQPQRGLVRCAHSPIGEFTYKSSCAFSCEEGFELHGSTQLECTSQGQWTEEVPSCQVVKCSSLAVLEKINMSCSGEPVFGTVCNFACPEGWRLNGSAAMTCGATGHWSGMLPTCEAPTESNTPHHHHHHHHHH
Kind of experiment: AlphaLISA competition vs sialyl Lewis A-PAA-biotin.

B1: anti-E-selectin antibody 0180 chimera (antibody, human IgG1, kappa, V domains shown)
VH: EVQLQQSGAELGKPGTSVKLSCKVSGYKIRSSYMHWVNQRPGKGLEWIGRIDPANGNTIYGDKFKSKATLTSDTSSNTAYIQLSQLKSDDTAIYFCAIDIGTTFDYWGQGVMVTVSS
VL: DIQMTQSPSFLSASVGDRVTINCKASQHINRYLNWYQQKLGEAPKLLIYDANNLQTGIPSRFSGSGSGTDFTLTISSLQPEDVATYFCLQHNSWPNTFGAGTKLELKR
notes: rat VH/VL on effector-null human IgG1 and human kappa
Turning to B1, the binding result in experiment [1] is on record as “no binding”. The EC50 in experiment [2] was below 1 nM.

B2: anti-E-selectin antibody 0164 chimera (antibody, human IgG1, kappa, V domains shown)
VH: EVQLQQSGAEFGKPGTSVKLSCKVSGYNIRSSYMHWVNQRPGKGLEWIGRIDPANGNTIYAEKFKIKAILTADSSSNTAYMQLSQLKSDDTAIYFCAMDLYSTSEYWGQGVMVTVSS
VL: B1 VL with A25T, H28N, D50N, N53S, G64A, S76N, H91D, N96L, A100S, L106I
notes: as for B1
In the case of B2, the binding result in experiment [1] was “no binding”. In addition, in experiment [2], the EC50 was below 1 nM.

B3: anti-E-selectin antibody 0159 chimera (antibody, human IgG1, kappa, V domains shown)
VH: EVQLQQSGAELGKPGTSVKLSCKVSGYNIRSTYMHWVSQRPGKGLEWIGRIDPANGNTIYAEKFKRKATLTADTSSNTAYMQLSQLKSDDRAIYFCAMEVRVSFEYWGQGVMVTVSS
VL: DIQMTQSPSFLSASVGDRVTINCKASQNINKYLDWYQQKLGEGPKLLIYYTNNLHTGIPSRFSGSGSGTDFTLTISSLQPEDVATYFCLQHDSGYTFGAGTKLELKR
notes: as for B1
With B3, the binding result in experiment [1] is “no binding”. The same molecule yielded a 50% effective concentration (EC50) in experiment [2] below 1 nM.

B4: anti-E-selectin antibody 0170 chimera (antibody, human IgG1, kappa, V domains shown)
VH: EVQLQQSGAELGKPGTSVKLSCKVSGYSIRSTYMHWVNQRPGKGLEWVGRIDPANGNTIYAERFKNKATLTADTSSNTAYMQLSQLKSDDTAIYFCAVEILGIFDYWGQGVMVTVSS
VL: B3 VL with N30D, G43A, I48M, Y50N, N53S, D92N
notes: as for B1
Turning to B4, the binding result in experiment [1] is “no binding”. Besides, in experiment [2], the EC50 is below 1 nM.

B5: anti-E-selectin antibody 0039 chimera (antibody, human IgG1, kappa, V domains shown)
VH: QVQLKETGPGLVQPTQTLSITCTVSGFSLTGYYMQWVRQTPGKGLEWMGFIRSSGSTEYNSEFKSRLSISRDTSKNQVFLKMNSLKTEDTGVYYCARCPYKYSSFVYVGVMDAWGQGAPVTVSS
VL: EIVMTQSPTSMSTSIGERVTLNCKASQTVGINVDWYQQTPGQPPKLLIYGASNRHTGVPDRFTGSGFGRDFTLTISNVEAEDLAVYCCLQYGSIPHTFGPGTKLELKR
notes: as for B1
B5 came in with an EC50 in experiment [2] above 63 nM.

B6: anti-E-selectin antibody 0158 chimera (antibody, human IgG1, kappa, V domains shown)
VH: QVQLKESGPGLVQPSETLSLTCTVSGFSISTYNVHWLRQPPGKGLEWMGMMWSGGSPDYNSALKSRLSISRDTSKNQVFLKMNSLQSEDTTTYYCARWGGGFDYWGQGVMVTVSS
VL: DIVLTQSPTTLSVTPGETVSLSCRASHSIGTNLHWYQQKTNESPRLLIKFTSQSISGIPSRFSASGSGTDFTLNINNVEFDDVSSYFCQQTQSWPLTFGSGTKLEIKR
notes: as for B1
As to B6, the binding result in experiment [1] is “no binding”.
